Results published in the supplement of paper PMC9170038.

These sequences were tested on K4 kissing-loop RNA reporter (assay: apparent KD of K4 kissing-loop reporter; higher = weaker reporter binding). Details: Eterna round: R107; input ligand: none.
Procedure: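 RNA-MaP round R107: designed RNA switches with theophylline, tryptophan, arginine or FMN aptamers are transcribed on-chip within common flanks. They are titrated with a labelled K4 kissing-loop RNA reporter in RNA-MaP buffer (100 mM Tris pH 7.5, 80 mM KCl, 4 mM MgCl2), without ligand or with the indicated ligand. Median apparent KD per design.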
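Note: bound reporter read as fluorescence of individual clusters on recovered sequencing chips by microscopy, with normalized cluster intensities fitted with a binding model.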

Point of comparison: “CUUAGGAGUGGUGUUGAUUAGGGAGCGGAAGGAGCGCCAAUGAUGGCAGGUAGGUCGCCGGAAUGUAGUGAUGUUGCAUAGAGGG [ExArgA.S]”, “apparent KD of K4 kissing-loop reporter” value 415 nM. Against it:
- GUUACGCAUGGAAGGAGCGCUCUCAUACUUAAUAACACAGUGAUGUUGUGAAUUUGUAUAAAGCAGGUAGGUCGCCAUGUGUAAC [Ex Arginine B K4 7] — within 1.5-fold, 424 nM
- GGUAGCAUGGCGGCCGCCACUACCUAGUGAUGUUAGGCUGUGGACAUAGGAGCAAGACAAAUAUGUAGGACCGGGCCAUGCUACC — 3.7-fold lower, 111 nM
- AUAUCUAGAGUGAUGUUCUAGUAAGCUGAAGGAGCGGACGAAAGUCCAGGUAGGUCGCAGUGUUUUUACACCUCAUGUGUAGGAG [KL-SSArg-A7 #analogue] — 3.9-fold lower, 107 nM
- GCAGUGAUGUUGCACGAGUAGGCUGGAGUACGAGGACCGGUACGGCCGCCACUCGUACGAAAGUCGCUAAUUUAUGGAAUGGUGA [#07 K4 Tryptophan A Same State] — 1.6-fold higher, 668 nM
- AGUGAUGUUGUGUUAUGUUAGUGAAGUGAUCGAGGACCGGUACGGCCGCCACUCGAGUGAUGAGUGAGUGAUGUUUGUUUAGGGA [popmullin] — 2.7-fold higher, 1140 nM
- UGGAGUUGACGAAAAGUCAACUCCCGAGAAGGAGCGGACGAAAGUCCAGGUAGGUCGCUCACUACCAGUGAUGUUGGUACUUAAA — 2.3-fold lower, 181 nM
- CGCAGUGAUGUUGCGAGCAGCUACAGGGAAGGAGCGCUUUAGUAAGCAGGUAGGUCGCCCACGCAGUGAUGUUGCGUCAUAGGGU [Exclusion Arginine A GF 20] — 3.5-fold lower, 117 nM
- CUAUGGAAACAUAGUAAUCGGGAAACCGAUACCAGUAUGGAAACAUACCCUUGGCAGCGGAAUGAUUAAACGGAGUGAUGUUCCG [Theophylline A K4 17] — within 1.5-fold, 285 nM
- CCAUCGCUAUUCGAUACCAGUCAUUUUUUAUUUUUUUUUUUUUUUGGAGUGAUGUUCCAAGACCCUUGGCAGCGAAUAGUGAUGG [whbob_SS_Theo_B_th77] — 5.4-fold lower, 76.3 nM
- GUCGGGACUCGAGGAUAUCAGUGGAGGCCAGUGAUGUUGGCCGUCCCGGUAGUUAAAAUUUUACCCUGAGAAGGCGAUUUCUGUC [Veceinusqu] — 3.1-fold lower, 133 nM
- AAUAAAAUCACGGCCGCCACUGAAUUAUUGGUAAGUAGUGAUGUUACUUUACAUAUCUAAUUUAACAGGACCGGGUGAAUAUUUA [#17 K4 Tryptophan B Exclusion] — 3.7-fold lower, 113 nM
- UAUGUACACUGGUAGUGGUACAUCGAGGAAGGAGCGUGCGCAGGCACAGGUAGGUCGCCUCAGCGCACGAGUGAUGUUCGUGGGC [Ceaqu] — within 1.5-fold, 358 nM
- AAGGUCACUGCUACAGUGAUGUUGUGGGAGCAGGAUAUGCUGAAAAGCAGAAGGGCUCGCUCCAGGUGACCGAAUGAAACAUUCA [whbob_SS_FMNA__2th176] — 3.1-fold higher, 1290 nM
- GCCGUACGCAUGGAUACCAGCAUUUAUGACACACUGCUAGUGAUGUUAGCUAUGCGUAUAUGCCCUUGGCAGCCAUGCGUACGGC — 3-fold lower, 140 nM
- AAGCAGUCCCUUGUUGUCAUCGAAGAUGAACGAGGACCGGUACGGCCGCCACUCGGAGUGAUGUUCCGAUGGCUGCAAAAUAAAA [MatMod 21 - Jieux - Exclusion - Tryptophan A] — 4-fold lower, 105 nM
- GCCGUAGAUGGAAGGAGCGUGAUAAGUGAAUUAUCCAGUGAUGUUGGAUCUUAGAUAGGAUCACAGGUAGGUCGCCAUCUACGGC — 1.9-fold lower, 217 nM
- GUAGACGUACCUUCAGUGAUGUUGAAGGAUACCAGAUGUUAUCACAUCCCUUGGCAGCCUUGGGAUAACAGUGAGUCGGAAUAUG [Essoaran] — 2.3-fold lower, 184 nM
- UGUGUUGUGUAGUGUUAUGUUUUGAGGGAUACCAGAGUGUUUUUAUUCCCUUGGCAGCUUGAGUGAUGUUUGAUGUUGUUGUUGU [jlljmullin] — 1.9-fold lower, 218 nM
- CAUACGCAUGGAGGAUAUGAGAUUUCUCAUAUUAUUUAAUAUUCUCAGUGAUGUUGAGAAAUAAACUCAGAAGGCCAUGUGUAUG [Ex FMN B 3] — within 1.5-fold, 313 nM
- GUACCUUGGAAACAAGGACCGCUAACCGAAGGAGCGCGUGAAAACGCAGGUAGGUCGCGGUAGCGGAGUGAUGUUCCGCGAGAGG [Excluson Arginine A GF 14] — 2.1-fold lower, 196 nM
- AGGUCCGAGCCCGGAAGGGCUCGGACCUGUUAGGAUAUGACGUUAUUCAGAAGGGAUGGGUGGAGUGAUGUUCCACCCGCAAGGG [#2 Same State - FMN A Attempt #9 (HarryS)] — 3.7-fold lower, 111 nM

Same assay, conditions: Eterna round: R107; input ligand: theophylline 20 uM

Point of comparison: “CUAUAAGUGCCGAGUGAUGUUCGGCCAAUACGAGGACCGGUACGGCCGCCACUCGGUCAGUGAGUGCCCACCGGGCGUGGCUGAC [Leedgeis]”, “apparent KD of K4 kissing-loop reporter” value 253 nM. Against it:
- GUGCAGUGAUGUUGCACGAGGAAAGACGAUACCAGCCGUAAAUAAGGCCCUUGGCAGCGUGGGCUAGCAUAAAGUACGCUAGUCU [Mara] — 2.7-fold lower, 94 nM
- AAAUAACAGGCAGGAUAUGCUUAGUAAUAAGGCCAUAUAUACGUAUAGAGUGAUGUUUUGUACAAAGCAGAAGGGCUAAAUCCAU [FMN B Excl V1] — 2.4-fold lower, 105 nM
- UUUGGAUUGCACUAAGAGCGCAAGCGCCAACGAGGACCGGUACGGCCGCCACUCGCGGAGGAGUCCAGUGAUGUUGGACGGCCCG [Onenusan] — within 1.5-fold, 180 nM
- UGACUGGAUGGAAGGAGCGCUAAACUCCUAGUGAUGUUAGGGAUAUGAGGCAAAGCCUUGAGGCAGGUAGGUCGCCAUCUAGUCU [FiskerMod 25 - Jieux - Same State - Arginine B] — 1.8-fold lower, 141 nM
- CCGAAGAACCAGUGAUGUUGGUUGACUAGACAGGAUAUGAGCAACAUCAGAAGGGUCUGGCUUCGGGAGUGGGUCACGCUGACCU [Iserreanor] — 3.6-fold higher, 912 nM
- GCUAUGGUAGGAAGGAGCGCUACUUUGUUUUUACGAGUGAUGUUCGGUAGCAGAGUGUUAAAGCAGGUAGGUCGCCUACUAUAGC [Arginine B K4 19] — within 1.5-fold, 307 nM
- GCAUAGGCCCAUCGGAAUUCGAGACCAGCACGAGGACCGGUACGGCCGCCACUCGUGCAGUGAUGUUGCACGAUUGGGAAACCGC [Beanveceti] — 2.4-fold lower, 104 nM
- ACGUGCACCAGUGAUGUUGGAAAAUAUGAAGGAGCGGGAGAAAACCCAGGUAGGUCGCAUAAUAGCACGAGCCACGAAAGUGGCA — within 1.5-fold, 196 nM
- AAUUCUCUUUUUGAUACCAGCGAAUCUGAGUGAUGUUCUAAGCCAUACAAUUGAGUAAAUCGCCCUUGGCAGCAAUUCGUGGGUG [theeternabot_exclusion_KL_Theo_B_20] — 3.6-fold higher, 921 nM
- UCGCACCUGUGGGCGAGGCCUAUAAUUGUCAAGGAUAUAGAUCAUUCUAGAAGGUGACACUUCGCGAGUGAUGUUCGGGAAAUGC [theeternabot_sameState_KL_FMN_A_8] — within 1.5-fold, 245 nM
- GACGGGCAGUGAUGUUGCCGGUCUCUUGGACGAGGACCGGUACGGCCGCCACUCGAUCUGAUGCAAGAAUCGCAUCUUUUAAUAA [Biququan] — within 1.5-fold, 312 nM
- AAAGACUGACUGCAAUUAGCAGUCAGUCAACGAGGACCGGUACGGCCGCCACUCGGGUCCUAGAGUGAUGUUCUAAUAAUAUAAU [Default title] — 1.8-fold higher, 466 nM
- GCCUAGGCUCGAAAGAGCCUAGGCUGGGCUCAGGAUAUCCGGAAACGGAGAAGGGAGGGACUAGUGAUGUUAGGGAUUCCCUAUG — within 1.5-fold, 251 nM
- CCAUCGCUAUUCGAUACCAGUCAAGAGGUCUUUGGCCUCUUAAUGGAGUGAUGUUCCUUAGACCCUUGGCAGCGAAUAGUGAUGG [Theophylline B K4 13] — within 1.5-fold, 340 nM
- AACGCUGCCUGAGGAUAUAGAAACGAGUGAUGUUCGUGGAACGAGACCAGUGAUGUUGGCCUAUUUCUAGAAGGCAGGCAACCGC [Exclusion FMN B GF 1] — 2.1-fold lower, 123 nM
- AACGCUCAAUAGAGAGUGAUGUUCUCUAUACGAGGACCGGUACGGCCGCCACUCGAAUGUAUAGCGAAACGCUAUACACAGUGGU [Tryp A SS t2] — 1.7-fold lower, 146 nM
- AAAAUAAACCAGUGAUGUUGGUGUCUAGAUACCAGCGAUAAUAAUCGCCCUUGGCAGCUACGGACGUACAAAAUAAGUACGUCCU [MatMod 10 - Jieux - Same State - Theophylline A] — 1.9-fold higher, 485 nM
- CGCAGUGAUGUUGCUAUUGUUCUUGGUUAACGAGGACCGGUACGGCCGCCACUCGAUGUCUGUCUAGUCCAGUGUUUUUUUGAGU [whbob_EX_Tryp_A_t9] — 2.3-fold higher, 571 nM
- UGACAUUGCUCAGAUACCAGUCAUGAGGAUCACCCAUGGGCCAAACGUACAAUAAUAAAUGACCCUUGGCAGCUGAGCAAUGUCU [TheoBX 14] — 1.9-fold lower, 135 nM
- CCUAUCUCGUAGGAUACCAGACUAUGAUCUAUGAUCAAUGCCAUCACCGAGUGAUGUUCGGUCCCUUGGCAGCCUAUGAGAUGGG [#13 K4 Theophylline B Exclusion] — within 1.5-fold, 221 nM
- UUAUUAUUCAGUGAUGUUGAAUUUAUUUCAGAGGAUAUGCAUAAAUGCAGAAGGCUGUAAUACUAUACUUUAAUAAAUUAAAUUU [JR_SSFMNA_Sub018] — within 1.5-fold, 262 nM
- GUUACGCAUGGAAGGAGCGCUCUCAUACUUAAUAACACAGUGAUGUUGUGAAUUUGUAUAAAGCAGGUAGGUCGCCAUGUGUAAC [Ex Arginine B K4 7] — within 1.5-fold, 379 nM
- GGUAGCAUGGCGGCCGCCACUACCUAGUGAUGUUAGGCUGUGGACAUAGGAGCAAGACAAAUAUGUAGGACCGGGCCAUGCUACC — 2-fold lower, 124 nM
- AUAUCUAGAGUGAUGUUCUAGUAAGCUGAAGGAGCGGACGAAAGUCCAGGUAGGUCGCAGUGUUUUUACACCUCAUGUGUAGGAG [KL-SSArg-A7 #analogue] — 1.6-fold lower, 163 nM
- GCAGUGAUGUUGCACGAGUAGGCUGGAGUACGAGGACCGGUACGGCCGCCACUCGUACGAAAGUCGCUAAUUUAUGGAAUGGUGA [#07 K4 Tryptophan A Same State] — 2.4-fold higher, 602 nM
- AGUGAUGUUGUGUUAUGUUAGUGAAGUGAUCGAGGACCGGUACGGCCGCCACUCGAGUGAUGAGUGAGUGAUGUUUGUUUAGGGA [popmullin] — 3.9-fold higher, 990 nM
- UGGAGUUGACGAAAAGUCAACUCCCGAGAAGGAGCGGACGAAAGUCCAGGUAGGUCGCUCACUACCAGUGAUGUUGGUACUUAAA — within 1.5-fold, 213 nM
- CGCAGUGAUGUUGCGAGCAGCUACAGGGAAGGAGCGCUUUAGUAAGCAGGUAGGUCGCCCACGCAGUGAUGUUGCGUCAUAGGGU [Exclusion Arginine A GF 20] — 2.5-fold lower, 100 nM
- CUAUGGAAACAUAGUAAUCGGGAAACCGAUACCAGUAUGGAAACAUACCCUUGGCAGCGGAAUGAUUAAACGGAGUGAUGUUCCG [Theophylline A K4 17] — within 1.5-fold, 237 nM
- CCAUCGCUAUUCGAUACCAGUCAUUUUUUAUUUUUUUUUUUUUUUGGAGUGAUGUUCCAAGACCCUUGGCAGCGAAUAGUGAUGG [whbob_SS_Theo_B_th77] — 2.2-fold lower, 114 nM
- GUCGGGACUCGAGGAUAUCAGUGGAGGCCAGUGAUGUUGGCCGUCCCGGUAGUUAAAAUUUUACCCUGAGAAGGCGAUUUCUGUC [Veceinusqu] — 1.9-fold lower, 131 nM
- AAUAAAAUCACGGCCGCCACUGAAUUAUUGGUAAGUAGUGAUGUUACUUUACAUAUCUAAUUUAACAGGACCGGGUGAAUAUUUA [#17 K4 Tryptophan B Exclusion] — 2.6-fold lower, 96.6 nM
